Results on 5 molecules are retold here after patent publication US20220017612A1 (TILOS THERAPEUTICS, published 2022).

Residue numbers refer to the chain shown, from its start. Where “and” joins values, the source holds several entries; their conditions need not be identical. Equal values may be shown once.

Test [1] concerns the target T1, human LAP-TGFβ1 overexpressed on cells (human, UniProt P01137 30-390). The test is described as follows: cell-based or functional assay.
Test [2] concerns the target murine LAP-TGFβ1 overexpressed on cells (mouse, UniProt P04202 30-390). The test is described as follows: cell-based or functional assay.
Test [3] addresses T1, human LAP-TGFβ1 overexpressed on cells. In words: cell-based or functional assay. The source holds these as a separate data set.
Test [4] addresses T2, fusion protein of a human IgG1 Fc domain and human LAP-TGFβ1 (human, UniProt P01137 30-390).
T2 construct: printed both as Fc-huB1 and LAP-TGFβ-Fc; also called Fc-huB1; Fc-human LAP
In words: BLI, antibody on tip, 1:1 model. On the procedure: (§1) The chimeric antibodies were biotinylated using EZ-Link SulfoNHS-LC-Biotin (ThermoFisher). A streptavidin-functionalized tip was equilibrated in binding buffer (10 mM sodium phosphate, 150 mM sodium chloride, 1% (w/v) bovine serum albumin, 0.05% (w/v) sodium azide, pH 7.4). The tip was dipped in a 10 μg/mL solution of biotinylated, chimeric anti-LAP in binding buffer for 15 seconds to load the tip with antibody. The antibody-loaded tip was then washed in binding buffer and placed in a solution containing 0-24 nM of LAP-TGFβ1 (either a fusion protein containing a human IgG1 Fc domain fused to human LAP-TGFβ1 or a murine LAP-TGFβ1 with a C-terminal polyhistidine purification tag). The antigen was allowed to bind to antibody for 5 minutes (association phase), and then the tip was moved to binding buffer (dissociation phase). The association and dissociation phases were fit to a 1:1 binding model to determine the binding rate constants.
(In general: In BLI a coated tip is dipped into the sample, and binding shifts an interference pattern.)

The target in test [5] is T3, murine LAP-TGFβ1 with a C-terminal polyhistidine purification tag (mouse, UniProt P04202 30-390).
T3 construct: also called Mouse LAP-TGFβ1
T3 sequence (P04202 30-390 limits assumed): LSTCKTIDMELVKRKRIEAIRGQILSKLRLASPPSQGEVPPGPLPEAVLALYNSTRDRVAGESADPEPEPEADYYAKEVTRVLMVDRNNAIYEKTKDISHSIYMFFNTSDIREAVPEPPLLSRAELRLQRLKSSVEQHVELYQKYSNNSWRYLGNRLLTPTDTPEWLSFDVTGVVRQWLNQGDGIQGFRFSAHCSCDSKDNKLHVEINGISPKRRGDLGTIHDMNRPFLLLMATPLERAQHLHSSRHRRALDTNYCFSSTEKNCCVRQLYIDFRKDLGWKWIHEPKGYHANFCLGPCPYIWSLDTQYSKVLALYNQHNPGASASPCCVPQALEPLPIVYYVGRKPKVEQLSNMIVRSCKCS
In words: BLI, antibody on tip, 1:1 model. The protocol: as §1

Test [6] deals with T4, human LAP-TGFβ2 overexpressed on HT1080 cells (human, UniProt P61812 21-414).
T4 construct: also called HT1080-huB2
T4 sequence: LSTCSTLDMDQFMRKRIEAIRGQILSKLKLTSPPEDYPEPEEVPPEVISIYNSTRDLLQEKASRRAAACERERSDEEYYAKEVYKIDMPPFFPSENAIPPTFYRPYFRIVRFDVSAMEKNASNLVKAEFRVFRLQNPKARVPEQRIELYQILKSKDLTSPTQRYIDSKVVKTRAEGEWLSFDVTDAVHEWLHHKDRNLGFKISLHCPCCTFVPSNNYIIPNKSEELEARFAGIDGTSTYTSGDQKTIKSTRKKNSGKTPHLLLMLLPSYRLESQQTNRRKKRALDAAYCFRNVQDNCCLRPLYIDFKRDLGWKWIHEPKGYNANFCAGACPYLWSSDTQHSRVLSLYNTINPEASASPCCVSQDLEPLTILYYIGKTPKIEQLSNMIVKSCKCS
The test is described as follows: flow cytometry titration, HT1080-huB2 cells. The protocol:
(§2) This Example describes the binding of anti-LAP antibodies to LAP-TGFβ isoforms and LAP-TGFβ variants. In addition to antibodies 28G11_hIgG1, 22F9_hIgG1, and 20E6_hIgG1, anti-LAP antibodies 17G8_hIgG1, 24E3_hIgG1, and 2C9_(hyb) were also tested in this experiment. Briefly, 4×10⁵ each of (a) HT1080 cells, (b) HT1080 cells overexpressing human LAP-TGFβ1, (c) HT1080 cells overexpressing human LAP-TGFβ2, (d) HT1080 cells overexpressing human LAP-TGFβ3, (e) HT1080 cells overexpressing murine LAP-TGFβ1, (f) P3U1 cells, (g) P3U1 cells overexpressing LAP-TGFβ1 and GARP, and (h) P3U1 cells overexpressing LAP-TGFβ1 and LRRC33 were cultured in 96-well plates. The plates were centrifuged for 5 min at 1,500 rpm, liquid was removed, and cells were resuspended with 200 μL FACS buffer. The plates were centrifuged again, diluted primary antibody was added to each well, and the plates were incubated on ice for 20 minutes, followed by centrifugation. The cells were resuspended in 200 μL FACS buffer, centrifuged again, and resuspended in 50 μL diluted secondary antibody (Alexa647-anti-Human IgG or APC-anti-Mouse IgG). The plates were incubated on ice for 20 minutes in the dark, washed twice with 200 μL FACS buffer, and cells from each well (in 200 μL FACS buffer) were read on the Attune NXT instrument.
In general terms: In flow cytometry, cells or beads pass a laser one at a time.

Test [7] has as its target T5, human LAP-TGFβ3 overexpressed on HT1080 cells (human, UniProt P10600 24-412).
T5 construct: also called HT1080-huB3
T5 sequence: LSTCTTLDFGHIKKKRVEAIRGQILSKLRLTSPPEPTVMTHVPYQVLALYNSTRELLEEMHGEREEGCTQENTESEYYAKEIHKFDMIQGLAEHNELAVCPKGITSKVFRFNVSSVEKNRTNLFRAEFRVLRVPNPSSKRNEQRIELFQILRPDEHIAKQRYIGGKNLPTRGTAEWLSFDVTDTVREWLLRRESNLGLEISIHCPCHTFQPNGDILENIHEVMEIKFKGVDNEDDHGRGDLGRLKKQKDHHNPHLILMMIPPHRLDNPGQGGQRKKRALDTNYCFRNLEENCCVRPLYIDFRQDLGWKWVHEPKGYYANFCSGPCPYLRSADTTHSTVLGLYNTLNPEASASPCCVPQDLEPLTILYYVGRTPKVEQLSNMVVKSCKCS
In words: flow cytometry titration, HT1080-huB3 cells. The protocol:
as §2

Test [8] addresses T6, human-chicken LAP-TGFβ1 chimera #2.2 on HT1080 cells (human/chicken chimera, UniProt P01137 30-390).
T6 construct: also called HT1080-ch2.2
In words: flow cytometry, HT1080 cells; grey bar = no anti-LAP antibody. The protocol: as §2
(§3) Cells were processed for flow cytometry in the same manner described above for the isoform-specific binding experiments.

In test [9] the target is T7, human LAP-TGFβ1 with K27C and Y75C mutations on HT1080 cells (human, UniProt P01137 30-390).
T7 construct: also called closed conformation
T7 sequence (P01137 other isoform, or with tags, fused parts or gaps K27C Y75C K27C Y75C): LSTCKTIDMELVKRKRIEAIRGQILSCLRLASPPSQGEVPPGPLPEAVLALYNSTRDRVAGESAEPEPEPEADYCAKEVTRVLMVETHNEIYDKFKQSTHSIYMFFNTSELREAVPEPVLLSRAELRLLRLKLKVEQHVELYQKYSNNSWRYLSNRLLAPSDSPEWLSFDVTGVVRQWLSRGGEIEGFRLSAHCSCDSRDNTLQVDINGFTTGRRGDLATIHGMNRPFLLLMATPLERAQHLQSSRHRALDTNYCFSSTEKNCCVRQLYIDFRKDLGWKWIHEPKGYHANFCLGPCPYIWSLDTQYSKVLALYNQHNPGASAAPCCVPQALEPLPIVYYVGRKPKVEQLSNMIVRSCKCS
Described as above. The protocol:
as §2, §3

The target of test [10] is T8, human LAP-TGFβ1 with a Y74T mutation on HT1080 cells (human, UniProt P01137 30-390).
T8 construct: also called HT1080-Y74T; open conformation
T8 sequence (P01137 other isoform, or with tags, fused parts or gaps Y74T Y74T): as the sequence (P01137 other isoform, or with tags, fused parts or gaps K27C Y75C K27C Y75C) above, with C27K, Y74T, C75Y counted along it
Described as above. On the procedure: as §2, §3

Test [11] deals with T9, LAP-only variant of human TGFβ1 (empty LAP) on HT1080 cells (human, UniProt P01137 30-277).
T9 construct: LAP without the mature cytokine; also called HT1080-emptyLAP; LAP-only construct
T9 sequence (P01137 30-277, change not shown): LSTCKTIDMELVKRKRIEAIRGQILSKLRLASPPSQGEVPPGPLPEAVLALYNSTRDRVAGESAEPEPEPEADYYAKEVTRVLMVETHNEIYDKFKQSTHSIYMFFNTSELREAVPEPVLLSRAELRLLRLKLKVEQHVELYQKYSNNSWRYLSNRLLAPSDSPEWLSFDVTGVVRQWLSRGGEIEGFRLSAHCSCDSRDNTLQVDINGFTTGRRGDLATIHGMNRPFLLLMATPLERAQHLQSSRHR
The test is described as above. The protocol: as §2, §3

The target in test [12] is T10, mature human TGFβ1 (free TGFβ1, without LAP) (human, UniProt P01137 279-390).
T10 construct: also called mature TGFβ; free human TGFβ1
T10 sequence (P01137 279-390 limits assumed): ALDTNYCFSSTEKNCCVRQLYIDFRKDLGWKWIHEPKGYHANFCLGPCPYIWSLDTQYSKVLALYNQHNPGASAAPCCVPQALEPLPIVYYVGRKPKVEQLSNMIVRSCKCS
The test is described as follows: TGFβ1 ELISA after pre-incubation of 1000 pg mature TGFβ1 with antibody; loss of signal reflects binding. The protocol: To determine whether anti-LAP antibodies 28G11_hIgG1, 22F9_hIgG1, 20E6_hIgG1, 17G8_hIgG1, and 24E3_hIgG1, bind to free human TGFβ1 (i.e., mature TGFβ1 that lacks LAP), the ability of the antibodies to inhibit an anti-TGFβ ELISA was evaluated. Briefly, mature TGFβ1 (1000 pg) was incubated with the indicated anti-LAP antibodies at 10 μg/mL, an isotype control antibody as a negative control or the commercially available anti-TGFβ antibody 1D11 as a positive control for 10 minutes on ice. For example, the 1D11 antibody is commercially available from any number of sellers, for example Bio x Cell Inc. (West Lebanon, N.H.). Supernatants were assayed in a TGFβ1 ELISA (R&D Systems) according to the manufacturer instructions to measure free TGFβ1. […] Note that Figure and FIG. are used interchangeably in this application.
(An ELISA detects its analyte on a solid surface through an enzyme-linked reagent.)

Test [13] concerns the target T11, human GARP and human LAP-TGFβ1 co-expressed on P3U1 cells (human, UniProt Q14392 20-662).
T11 construct: whole, on cells; also called P3U1 cells over-expressing human GARP and LAP-TGFβ1
In words: flow cytometry, P3U1 cells. On the procedure: as §2

The target of test [14] is T12, human-chicken LAP-TGFβ1 chimera #2.3 on HT1080 cells (human/chicken chimera, UniProt P01137 30-390).
T12 construct: also called HT1080-ch2.3
T12 sequence (P01137 other isoform, or with tags, fused parts or gaps mutant): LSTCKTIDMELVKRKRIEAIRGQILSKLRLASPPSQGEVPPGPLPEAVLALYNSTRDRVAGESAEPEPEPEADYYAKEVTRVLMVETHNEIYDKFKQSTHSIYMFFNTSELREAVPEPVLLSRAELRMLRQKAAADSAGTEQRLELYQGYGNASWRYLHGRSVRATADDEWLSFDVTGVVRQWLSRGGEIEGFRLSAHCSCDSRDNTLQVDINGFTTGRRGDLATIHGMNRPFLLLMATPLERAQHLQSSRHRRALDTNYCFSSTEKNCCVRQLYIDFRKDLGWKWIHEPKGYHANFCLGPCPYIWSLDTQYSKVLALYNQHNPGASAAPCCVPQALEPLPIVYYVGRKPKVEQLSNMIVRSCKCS
In words: flow cytometry, HT1080 cells; grey bar = no anti-LAP antibody. On the procedure:
as §2, §3

For test [15], the target named is T1, human LAP-TGFβ1 overexpressed on cells. The test is described as follows: flow cytometry; legend box on the sheet: black HT1080-null, grey HT1080-huB1.

T2 sequence (P01137 30-390 limits assumed): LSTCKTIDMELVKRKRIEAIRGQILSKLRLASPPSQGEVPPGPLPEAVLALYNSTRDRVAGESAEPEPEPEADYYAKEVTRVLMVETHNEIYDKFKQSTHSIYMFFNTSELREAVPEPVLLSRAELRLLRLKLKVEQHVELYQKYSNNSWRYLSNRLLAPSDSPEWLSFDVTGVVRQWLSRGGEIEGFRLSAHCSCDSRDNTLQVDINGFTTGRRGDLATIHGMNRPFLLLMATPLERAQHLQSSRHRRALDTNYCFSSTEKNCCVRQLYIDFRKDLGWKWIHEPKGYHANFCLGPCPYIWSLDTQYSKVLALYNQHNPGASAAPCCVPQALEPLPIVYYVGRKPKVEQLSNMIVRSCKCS
T1 sequence (P01137 30-390): as the sequence (P01137 30-390 limits assumed) above
Chain of murine LAP-TGFβ1 overexpressed on cells (P04202 30-390): as the sequence (P04202 30-390 limits assumed) above
T6 sequence (P01137 other isoform, or with tags, fused parts or gaps mutant): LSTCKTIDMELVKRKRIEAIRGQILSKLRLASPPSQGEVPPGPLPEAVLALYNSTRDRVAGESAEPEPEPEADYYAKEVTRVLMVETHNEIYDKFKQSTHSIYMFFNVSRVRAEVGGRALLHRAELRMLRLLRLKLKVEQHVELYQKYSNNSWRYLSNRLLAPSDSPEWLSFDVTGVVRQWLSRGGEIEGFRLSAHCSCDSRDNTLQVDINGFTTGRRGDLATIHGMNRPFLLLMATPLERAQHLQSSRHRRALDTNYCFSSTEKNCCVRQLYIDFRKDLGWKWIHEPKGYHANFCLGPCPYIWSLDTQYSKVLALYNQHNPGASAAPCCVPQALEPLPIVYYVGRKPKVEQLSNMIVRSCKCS
T11 sequence (chain, as listed by the source, chain 1 of 2): as the sequence (P01137 30-390 limits assumed) above
T11 sequence (Q14392 20-662, chain 2 of 2): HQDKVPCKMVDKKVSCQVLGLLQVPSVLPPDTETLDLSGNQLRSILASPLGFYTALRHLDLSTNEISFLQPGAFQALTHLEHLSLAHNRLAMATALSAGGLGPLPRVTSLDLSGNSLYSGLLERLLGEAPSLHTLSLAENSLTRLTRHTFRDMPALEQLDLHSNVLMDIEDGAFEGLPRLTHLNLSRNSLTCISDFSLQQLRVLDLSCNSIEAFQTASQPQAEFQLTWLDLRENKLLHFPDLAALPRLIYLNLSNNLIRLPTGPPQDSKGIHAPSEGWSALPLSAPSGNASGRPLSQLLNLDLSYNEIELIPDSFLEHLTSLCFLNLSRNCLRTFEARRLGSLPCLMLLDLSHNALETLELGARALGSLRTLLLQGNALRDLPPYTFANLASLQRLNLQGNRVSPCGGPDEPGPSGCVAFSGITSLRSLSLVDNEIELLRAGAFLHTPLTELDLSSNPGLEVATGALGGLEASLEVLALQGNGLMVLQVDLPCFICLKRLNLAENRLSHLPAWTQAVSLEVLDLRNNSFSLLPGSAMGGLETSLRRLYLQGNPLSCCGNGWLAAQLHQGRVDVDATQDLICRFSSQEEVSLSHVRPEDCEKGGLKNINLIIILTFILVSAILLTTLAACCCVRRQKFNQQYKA

B1: 28G11_hIgG1 (antibody, V domains shown)
VH: EVKLVESGGGLVQPGGSLSLSCAASGFTFTDYYMSWVRQPPGKALEWLGFIRNKPNGYTTEYSASVKGRFTISRDNSQSILYLQMNVLRAEDSATYYCARYTGGGYFDYWGQGTTLTVSS
VL: DIQMTQTTSSLSASLGDRLTISCRASQDISNYLNWYQQKPDGTVKLLIYYTSRLHSGVPSRFSGSGSGTDYSLTISNLEQADIATYFCQQGDTLPWTFGGGTKLEIK
Consider B1, for which the entries for the “IC50 of inhibition of TGFβ1 activation (ELISA of active TGFβ1)” value in test [1] and in [2] were 1.4 µg/mL and 1 µg/mL, respectively. Also, the “Inhibition of human TGFβ1 activation (IC50)” value in test [3] was 2.3 µg/mL. Besides, the Kd (usually the constant that tells how readily two partners part at equilibrium) in test [4] was found to be 0.67 nM; in [5], 0.19 nM. For the same molecule, the koff (in general, the first-order rate constant of dissociation) in [4] is 0.00036 s⁻¹; in test [5] it was 0.000158 s⁻¹. Also, the kon – broadly, the second-order rate constant of association – was 540000 M⁻¹ s⁻¹ in [4] and 840000 M⁻¹ s⁻¹ in test [5]. The binding result in test [6] is “no binding (tested: about 800 ng/well)”; in test [7], “no binding (tested: about 800 ng/well)”; in test [8], “no binding”; in test [9] it was “binds”; in test [10], “no binding”; in [11], “no binding”. The binding result in [12] is “no binding (tested: 10 µg/mL)”.

B2: 24E3_hIgG1 (antibody, V domains shown)
VH: QAYLQQSGAELVRPGASVKMSCKASGYTFTSYNMHWVKQTPRQGLEWIGAIYPGNGDTSYNPKFKGKATLTVDKSSSTAYMQLSSLTSEDSAVYFCTRWDWGGYFDVWGTGTTVTVSS
VL: B1 VL with L19V, A81E, E105G
Consider B2, for which the “IC50 of inhibition of TGFβ1 activation” value in [1] was 2.5 µg/mL and 2.6 µg/mL; in test [2], 1.1 µg/mL and 0.76 µg/mL. For the same molecule, the binding result in [13] is on record as “binds”; in [6], “no binding (tested: about 800 ng/well)”; in test [7] it was “no binding (tested: about 800 ng/well)”; in [8], “no binding”; in test [14], “binds”; in [9], “binds”. The binding result in [10] is on record as “no binding”; in test [11] it was “no binding”; in test [12], “no binding (tested: 10 µg/mL)”.

B3: 17G8_hIgG1 (antibody, V domains shown)
VH: B1 VH with P55A, V87A, T102K, G103L, Y109V, Q112T, L116V
VL: B1 VL with L19V, A81E, D92N
B3: the “IC50 of inhibition of TGFβ1 activation” value in test [1] is 1 /ml (as printed) and 1.5 ug/ml; in test [2] it was 1.4 µg/mL and 0.59 µg/mL. For the same molecule, the binding result in test [13] is recorded as “binds”; in [6], “no binding (tested: about 800 ng/well)”; in test [7], “no binding (tested: about 800 ng/well)”; in [8], “no binding”; in test [14] it was “binds”; in test [9] it was “binds”. Also, the figures for the binding result in [10], in test [11] and in [12] were “no binding”, “no binding” and “no binding (tested: 10 µg/mL)”, respectively.

B4: 28G11_H2.1L3 (antibody, human IgG1, kappa, V domains shown)
VH: EVQLVESGGGLVQPGGSLRLSCAASGFTFTDYYMSWVRQAPGKGLEWLGFIRNKPQGYTTEYSASVKGRFTISRDNSQSSLYLQMNSLKTEDTAVYYCARYTGGGYFDYWGQGTLLTVSS
VL: DIQMTQSPSSLSASVGDRLTISCRASQDISNYLNWYQQKPGKTVKLLIYYTSRLHSGVPSRFSGSGSGTDYTLTISSLQPEDVATYFCQQGDTLPWTFGQGTKLEIKR
As to B4, the binding result in test [15] is reported as “binds”.

B5: 28G11_H2aL3a (antibody, human IgG1, kappa, V domains shown)
VH: B4 VH with L48V, Q56N, Q78K, S79N, L116V
VL: B4 VL with T43V, F87Y
Take B5: the binding result in [15] was “binds”.
